The Kd is the concentration at which binding is half-saturated. The low end stands for higher affinity, the high end for lower affinity.

The values that follow come from paper PMC8179133, “PilB from Streptococcus sanguinis is a bimodular type IV pilin with a direct role in adhesion” (Proceedings of the National Academy of Sciences of the …, 2021).

Assay [1] addresses fibronectin from human plasma (human). Put plainly: ELISA; putative ligands (5 µg/mL in carbonate-bicarbonate buffer, 50 µL) adsorbed on MaxiSorp plates O/N at 4 °C; blocked 1 h with 3% BSA or 1% gelatin in PBS; serial twofold dilutions of 6His-PilB (40 to 0.625 µg/mL) for 2 h at 37 °C; detected with anti-6His antibody and HRP-linked anti-rabbit IgG, read at 450 nm; Kd by nonlinear regression (One site - Total and nonspecific binding) with BSA or gelatin as nonspecific binding control. Background: ELISA stands for enzyme-linked immunosorbent assay.

The target in assay [2] is fibrinogen from human plasma (human, UniProt P02671 36-866; P02675 45-491; P02679 27-453, Plasma-purified disulfide-linked (AalphaBbetagamma)2 hexamer, N-glycosylated on the beta and gamma chains, fibrinopeptides A and B retained. Limits are not printed. The alpha chain is taken as the mai). Put plainly: ELISA; putative ligands (5 µg/mL in carbonate-bicarbonate buffer, 50 µL) adsorbed on MaxiSorp plates O/N at 4 °C; blocked 1 h with 3% BSA or 1% gelatin in PBS; serial twofold dilutions of 6His-PilB (40 to 0.625 µg/mL) for 2 h at 37 °C; detected with anti-6His antibody and HRP-linked anti-rabbit IgG, read at 450 nm; Kd by nonlinear regression (One site - Total and nonspecific binding) with BSA or gelatin as …. The settings on record: both partners purified.
Sequence of fibrinogen from human plasma (P02671 36-866, chain 1 of 3): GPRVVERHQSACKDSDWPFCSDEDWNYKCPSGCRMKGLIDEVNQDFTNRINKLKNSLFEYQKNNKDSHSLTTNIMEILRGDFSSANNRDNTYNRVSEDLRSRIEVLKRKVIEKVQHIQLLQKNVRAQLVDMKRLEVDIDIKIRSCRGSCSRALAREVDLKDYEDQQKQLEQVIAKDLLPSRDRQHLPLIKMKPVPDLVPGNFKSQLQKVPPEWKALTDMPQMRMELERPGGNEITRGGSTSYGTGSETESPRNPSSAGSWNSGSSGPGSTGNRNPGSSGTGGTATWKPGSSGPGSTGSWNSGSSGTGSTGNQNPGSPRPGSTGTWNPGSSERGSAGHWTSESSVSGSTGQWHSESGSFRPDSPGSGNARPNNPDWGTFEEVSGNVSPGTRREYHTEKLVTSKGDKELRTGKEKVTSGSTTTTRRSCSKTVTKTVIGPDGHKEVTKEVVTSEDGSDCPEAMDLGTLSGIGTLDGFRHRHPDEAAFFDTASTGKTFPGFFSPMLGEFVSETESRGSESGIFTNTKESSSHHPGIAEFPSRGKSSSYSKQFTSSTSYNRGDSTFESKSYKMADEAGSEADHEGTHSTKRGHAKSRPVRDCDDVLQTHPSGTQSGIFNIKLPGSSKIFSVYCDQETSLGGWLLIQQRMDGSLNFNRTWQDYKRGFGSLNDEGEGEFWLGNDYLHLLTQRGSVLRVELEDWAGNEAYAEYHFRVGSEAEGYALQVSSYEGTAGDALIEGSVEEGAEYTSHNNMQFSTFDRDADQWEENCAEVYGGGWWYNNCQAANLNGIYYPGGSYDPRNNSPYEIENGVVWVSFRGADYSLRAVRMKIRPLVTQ
Sequence of fibrinogen from human plasma (P02675 45-491, chain 2 of 3): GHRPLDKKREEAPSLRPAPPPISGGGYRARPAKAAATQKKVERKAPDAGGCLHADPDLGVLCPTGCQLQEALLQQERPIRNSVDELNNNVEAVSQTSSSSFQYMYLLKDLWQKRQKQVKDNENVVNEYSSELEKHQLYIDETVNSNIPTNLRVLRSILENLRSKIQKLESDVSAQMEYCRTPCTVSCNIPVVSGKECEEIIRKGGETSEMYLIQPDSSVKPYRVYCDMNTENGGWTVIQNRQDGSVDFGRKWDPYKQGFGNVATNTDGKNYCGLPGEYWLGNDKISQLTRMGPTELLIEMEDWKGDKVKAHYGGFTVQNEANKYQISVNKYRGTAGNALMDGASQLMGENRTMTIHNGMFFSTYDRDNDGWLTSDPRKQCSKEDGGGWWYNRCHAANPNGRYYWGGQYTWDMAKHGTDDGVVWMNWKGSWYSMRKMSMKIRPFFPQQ
Sequence of fibrinogen from human plasma (P02679 27-453, chain 3 of 3): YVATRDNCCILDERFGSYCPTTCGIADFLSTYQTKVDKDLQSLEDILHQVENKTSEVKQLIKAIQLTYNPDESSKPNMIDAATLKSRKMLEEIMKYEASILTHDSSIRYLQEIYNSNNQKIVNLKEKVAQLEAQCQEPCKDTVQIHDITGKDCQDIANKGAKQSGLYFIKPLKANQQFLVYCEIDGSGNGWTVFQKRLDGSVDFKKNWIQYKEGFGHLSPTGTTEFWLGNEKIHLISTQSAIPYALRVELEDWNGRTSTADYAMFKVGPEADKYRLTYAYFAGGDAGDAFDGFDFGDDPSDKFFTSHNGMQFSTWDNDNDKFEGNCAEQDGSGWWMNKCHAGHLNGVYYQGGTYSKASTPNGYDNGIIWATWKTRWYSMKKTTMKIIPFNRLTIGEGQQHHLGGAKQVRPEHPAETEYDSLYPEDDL

In assay [1], “6His-PilB_(36-461) (from UniProt A0A0B7GP99 36-461) (domain or fragment)” gave a Kd of 494 nM.
Still for that read-out and setting: for “PilBvWA (from UniProt A0A0B7GP99 192-461) (domain or fragment)” the value was 997 nM.

B1: 6His-PilB_(36-461) (domain or fragment)
chain: SSRELIEREASIQAEMRTSMQYVDRTVGKATSIFILDDSKFKGSKQGLTREWSYIGLSADGKKVMNYVWNKQKQDWDVSELGTKSLYNMKLDLEFKTEGAYQDNRLISYNLTGKYPDTNNKLGIDTAISALNTKQVFSKVAKGKKGIAIAYRTDPIQGQMNIAVSFVFDTSGSMDWDLQGRNVKKTGNESRMDILRKKSVIMIKDLAEIGNISVNLVGFSTSAKYIQQNFSNLDNGTNTIIATITKRENLNPDGVTNPGDGLRYGMISLQSQPAQLKYIVLLTDGIPNAYLVDSRALYAGNRVDLSQGAGRVTFNNPIYDLSPTLGYEYSRLGYDLYSRDSITRENSIAYAGEVSKKFGLGIKRVNVIGFSGVNHEIAYGQSLTDRIGEGGMETKYVSATNEEALQKTFSDIKKQIQQDLWFVSGP
notes: pilin module, short loop and vWA module; 48.4 kDa; synthetic gene codon optimized for E. coli; The 6His tag is noncleavable; also called native PilB; soluble portion of PilB; not shown: 6His, N-terminal, kept
Molecule B1 came in with a Kd in assay [2] of 865 nM.

B2: PilBvWA (domain or fragment)
chain: QGQMNIAVSFVFDTSGSMDWDLQGRNVKKTGNESRMDILRKKSVIMIKDLAEIGNISVNLVGFSTSAKYIQQNFSNLDNGTNTIIATITKRENLNPDGVTNPGDGLRYGMISLQSQPAQLKYIVLLTDGIPNAYLVDSRALYAGNRVDLSQGAGRVTFNNPIYDLSPTLGYEYSRLGYDLYSRDSITRENSIAYAGEVSKKFGLGIKRVNVIGFSGVNHEIAYGQSLTDRIGEGGMETKYVSATNEEALQKTFSDIKKQIQQDLWFVSGP
notes: PilB of Streptococcus sanguinis 2908, residues 192-461: only the von Willebrand factor A-like (vWA) module; expressed from pET28-pilB192-461; also called vWA module of PilB; PilB 192-461; source: E. coli BL21(DE3), purified; not shown: 6His, N-terminal, kept
In assay [2], B2 registered a Kd of 337 nM.
